Data on 56 variants can be found in publication PMC12102759 (2025).

B1: NOTCH4 peptide 1606-1621 (Neurogenic locus notch homolog protein 4), 16-mer library wild type / NSP9 (ORF1ab Nsp9, residues 4141-4253) (parent complex)
chain 1: QGAWLGAPEPWEPLLD
chain 2: NNELSPVALRQMSCAAGTTQTACTDDNALAYYNTTKGGRFVLALLSDLQDLKWARFPKSDGTGTIYTELEPPCRFVTDTPKGPKVKYLYFIKGLNNLNRGMVLGSLAATVRLQ

Variants of B1 are the subject of the experiment. The experiment in a line: bait immobilised on MaxiSorp plates (10 µg), library pre-cleared on GST, 2 h binding at 4 °C, five washes; one round per day, days 1-4; value from days 2 and 3.
Consider chain 1 QGMWLGAPEPWEPLLD, for which the screen value was 0.0101 average fractional NGS count over selection days 2 and 3 (reads of this peptide / all reads for the bait, averaged over ….
chain 1 QGYWLGAPEPWEPLLD: the screen value was 0.00272 average fractional NGS count over selection days 2 and 3 (reads of this peptide / all reads for the bait, averaged over ….
The result for chain 1 QGAWLPAPEPWEPLLD reads 0.00151 average fractional NGS count over selection days 2 and 3 (reads of this peptide / all reads for the bait, averaged over ….
In the case of chain 1 QGAWLGDPEPWEPLLD, the screen value is 0.00053 average fractional NGS count over selection days 2 and 3 (reads of this peptide / all reads for the bait, averaged over ….
The result for chain 1 QGAWLGQPEPWEPLLD reads 0.00107 average fractional NGS count over selection days 2 and 3 (reads of this peptide / all reads for the bait, averaged over …; that for chain 1 QGAWLGGPEPWEPLLD, 0.00198 average fractional NGS count over selection days 2 and 3 (reads of this peptide / all reads for the bait, averaged over …; that for chain 1 QGAWLGEPEPWEPLLD, 0.000192 average fractional NGS count over selection days 2 and 3 (reads of this peptide / all reads for the bait, averaged over ….
Regarding chain 1 QGAWLGHPEPWEPLLD, the screen value was 0.0144 average fractional NGS count over selection days 2 and 3 (reads of this peptide / all reads for the bait, averaged over ….
The result for chain 1 QGAWIGAPEPWEPLLD reads 0.000857 average fractional NGS count over selection days 2 and 3 (reads of this peptide / all reads for the bait, averaged over …; that for chain 1 QGAWLGAPEPWEPYLD, 0.00146 average fractional NGS count over selection days 2 and 3 (reads of this peptide / all reads for the bait, averaged over …; that for chain 1 QGAWLGAPEPWEPTLD, 0.00105 average fractional NGS count over selection days 2 and 3 (reads of this peptide / all reads for the bait, averaged over ….
To chain 1 QGAWLGAPEPWEPMLD belongs 0.00305 average fractional NGS count over selection days 2 and 3 (reads of this peptide / all reads for the bait, averaged over …; to chain 1 QGAWLGAPEPWEPALD, 0.00317 average fractional NGS count over selection days 2 and 3 (reads of this peptide / all reads for the bait, averaged over ….
To chain 1 QGAWLGAPELWEPLLD belongs 0.00033 average fractional NGS count over selection days 2 and 3 (reads of this peptide / all reads for the bait, averaged over …; to chain 1 QGAWLGAPERWEPLLD, 0.00113 average fractional NGS count over selection days 2 and 3 (reads of this peptide / all reads for the bait, averaged over ….
As for chain 1 QGAWLGAPEMWEPLLD, the screen value is 0.0078 average fractional NGS count over selection days 2 and 3 (reads of this peptide / all reads for the bait, averaged over ….
To chain 1 QGAWLGAPEKWEPLLD belongs 0.00223 average fractional NGS count over selection days 2 and 3 (reads of this peptide / all reads for the bait, averaged over …; to chain 1 QGAWLGAPEHWEPLLD, 0.000471 average fractional NGS count over selection days 2 and 3 (reads of this peptide / all reads for the bait, averaged over …; to chain 1 QGAWLGAPEWWEPLLD, 0.00034 average fractional NGS count over selection days 2 and 3 (reads of this peptide / all reads for the bait, averaged over ….
For the variant chain 1 QGAWLGAPENWEPLLD, the screen value is 0.000425 average fractional NGS count over selection days 2 and 3 (reads of this peptide / all reads for the bait, averaged over ….
For the variant chain 1 QGAWLGASEPWEPLLD, the screen value is 0.00076 average fractional NGS count over selection days 2 and 3 (reads of this peptide / all reads for the bait, averaged over ….
The result for chain 1 QGAWLGAMEPWEPLLD reads 0.00044 average fractional NGS count over selection days 2 and 3 (reads of this peptide / all reads for the bait, averaged over …; that for chain 1 QGAWLGAIEPWEPLLD, 0.000952 average fractional NGS count over selection days 2 and 3 (reads of this peptide / all reads for the bait, averaged over …; that for chain 1 QGAWLGAFEPWEPLLD, 0.000628 average fractional NGS count over selection days 2 and 3 (reads of this peptide / all reads for the bait, averaged over ….
The result for chain 1 QGAWLGAPEPWHPLLD reads 8.76e-05 average fractional NGS count over selection days 2 and 3 (reads of this peptide / all reads for the bait, averaged over …; that for chain 1 QGAWLGAPEPWLPLLD, 0.00277 average fractional NGS count over selection days 2 and 3 (reads of this peptide / all reads for the bait, averaged over ….
To chain 1 QGAWLGAPEPWYPLLD belongs 0.00153 average fractional NGS count over selection days 2 and 3 (reads of this peptide / all reads for the bait, averaged over ….
With chain 1 QGAWLGAPEPWQPLLD, the screen value was 0.00173 average fractional NGS count over selection days 2 and 3 (reads of this peptide / all reads for the bait, averaged over ….
To chain 1 QGAWLGAPEPWTPLLD belongs 0.00258 average fractional NGS count over selection days 2 and 3 (reads of this peptide / all reads for the bait, averaged over ….
Turning to chain 1 QGAWLGAPEPWWPLLD, the screen value was 0.0479 average fractional NGS count over selection days 2 and 3 (reads of this peptide / all reads for the bait, averaged over ….
In the case of chain 1 QGAWLGAPEPHEPLLD, the screen value was 0.00345 average fractional NGS count over selection days 2 and 3 (reads of this peptide / all reads for the bait, averaged over ….
As for chain 1 QGAWLGAPEPTEPLLD, the screen value was 0.000139 average fractional NGS count over selection days 2 and 3 (reads of this peptide / all reads for the bait, averaged over ….
Take chain 1 QGAWLGAPEPMEPLLD: the screen value is 0.0273 average fractional NGS count over selection days 2 and 3 (reads of this peptide / all reads for the bait, averaged over ….
chain 1 QGAWLGAPEPEEPLLD: the screen value is 0.00215 average fractional NGS count over selection days 2 and 3 (reads of this peptide / all reads for the bait, averaged over ….
As for chain 1 IGAWLGAPEPWEPLLD, the screen value is 0.000162 average fractional NGS count over selection days 2 and 3 (reads of this peptide / all reads for the bait, averaged over ….
For chain 1 YGAWLGAPEPWEPLLD, the screen value is 0.00151 average fractional NGS count over selection days 2 and 3 (reads of this peptide / all reads for the bait, averaged over ….
Take chain 1 AGAWLGAPEPWEPLLD: the screen value was 0.00674 average fractional NGS count over selection days 2 and 3 (reads of this peptide / all reads for the bait, averaged over ….
The result for chain 1 LGAWLGAPEPWEPLLD reads 0.000598 average fractional NGS count over selection days 2 and 3 (reads of this peptide / all reads for the bait, averaged over ….
To chain 1 HGAWLGAPEPWEPLLD belongs 0.000824 average fractional NGS count over selection days 2 and 3 (reads of this peptide / all reads for the bait, averaged over …; to chain 1 TGAWLGAPEPWEPLLD, 0.000204 average fractional NGS count over selection days 2 and 3 (reads of this peptide / all reads for the bait, averaged over ….
Regarding chain 1 QGAWLGAPAPWEPLLD, the screen value is 0.000237 average fractional NGS count over selection days 2 and 3 (reads of this peptide / all reads for the bait, averaged over ….
The result for chain 1 QGAWLGAPTPWEPLLD reads 0.00217 average fractional NGS count over selection days 2 and 3 (reads of this peptide / all reads for the bait, averaged over ….
To chain 1 QGAWLGAPYPWEPLLD belongs 0.000233 average fractional NGS count over selection days 2 and 3 (reads of this peptide / all reads for the bait, averaged over …; to chain 1 QGAWLGAPLPWEPLLD, 0.0321 average fractional NGS count over selection days 2 and 3 (reads of this peptide / all reads for the bait, averaged over …; to chain 1 QGAWLGAPKPWEPLLD, 0.000266 average fractional NGS count over selection days 2 and 3 (reads of this peptide / all reads for the bait, averaged over ….
The result for chain 1 QGAWLGAPEPWEKLLD reads 0.00839 average fractional NGS count over selection days 2 and 3 (reads of this peptide / all reads for the bait, averaged over ….
Regarding chain 1 QGAWLGAPEPWEELLD, the screen value was 0.000762 average fractional NGS count over selection days 2 and 3 (reads of this peptide / all reads for the bait, averaged over ….
The result for chain 1 QGAWLGAPEPWEHLLD reads 0.000211 average fractional NGS count over selection days 2 and 3 (reads of this peptide / all reads for the bait, averaged over …; that for chain 1 QGAWLGAPEPWEQLLD, 0.000154 average fractional NGS count over selection days 2 and 3 (reads of this peptide / all reads for the bait, averaged over …; that for chain 1 QGAWLGAPEPWEILLD, 0.00354 average fractional NGS count over selection days 2 and 3 (reads of this peptide / all reads for the bait, averaged over ….
chain 1 QGAWLGAPEPWEWLLD: the screen value was 0.000306 average fractional NGS count over selection days 2 and 3 (reads of this peptide / all reads for the bait, averaged over ….
Consider chain 1 QGAWLGAPEPWEGLLD, for which the screen value is 0.00615 average fractional NGS count over selection days 2 and 3 (reads of this peptide / all reads for the bait, averaged over ….
To chain 1 QGAWLGAPEPWEPLPD belongs 0.000417 average fractional NGS count over selection days 2 and 3 (reads of this peptide / all reads for the bait, averaged over …; to chain 1 QGAWLGAPEPWEPLDD, 0.000339 average fractional NGS count over selection days 2 and 3 (reads of this peptide / all reads for the bait, averaged over …; to chain 1 QGAWLGAPEPWEPLFD, 0.000114 average fractional NGS count over selection days 2 and 3 (reads of this peptide / all reads for the bait, averaged over ….
To chain 1 QGAWLGAPEPWEPLRD belongs 0.000322 average fractional NGS count over selection days 2 and 3 (reads of this peptide / all reads for the bait, averaged over ….
